Tests used:
[1] = Hydrolysis of long-chain sn-2 phospholipid by recombinant PAF-AH; type: biochemical; conditions: incubated with recombinant PAF-AH
Procedure: The most remarkable property of the PAF acetylhydrolase is its marked specificity for substrates with a short residue at the sn-2 position of the substrate. This strict specificity distinguishes PAF acetylhydrolase from other forms of PLA2. Thus, to determine if recombinant PAF-AH degrades phospholipids with long-chain fatty acids at the sn-2 position, hydrolysis of 1-palmitoyl-2-arachidonoyl-sn-glycero-3-phosphocholine (arachidonoylPC) was assayed since this is the preferred substrate for a well-characterized form of PLA2. […] In additional experiments, arachidonoylPC was included in a standard PAF hydrolysis assay at concentrations ranging from 0 to 125 μM to determine whether it inhibited the hydrolysis of PAF by recombinant PAF-AH. There was no inhibition of PAF hydrolysis even at the highest concentration of […], which was 5-fold greater than the concentration of PAF. […] Native plasma PAF-AH has several other properties that distinguish it from other phospholipases including calcium-independence and resistance to compounds that modify sulfhydryl groups or disrupt disulfides.

PAF-induced foot edema = assay: PAF-induced rat foot edema model; type: in vivo
Procedure: Six to eight-week-old female Long Evans rats (Charles River, Wilmington, Mass.), weighing 180-200 grams, were used for all experiments. Prior to experimental manipulations, animals were anesthetized with a mixture of the anesthetics Ketaset (Fort Dodge laboratories, Fort Dodge, Iowa), Rompun (Miles, Shawnee Mission, Kans.), and Ace Promazine (Aveco, Fort Dodge, Iowa) administered subcutaneously at approximately 2.5 mg Ketaset, 1.6 mg Rompun, 0.2 mg Ace Promazine per animal per dose. Edema was induced in the foot by administration of either PAF or zymosan as follows. PAF (Sigma #P-1402) was freshly prepared for each experiment from a 19.1 mM stock solution stored in chloroform/methanol (9:1) at −20° C. Required volumes were dried down under N2, diluted 1:1000 in a buffer containing 150 mM NaCl, […] Tris pH 7.5, and 0.25% BSA, and sonicated for five minutes. Animals received 50 μl PAF (final dose of 0.96 nmoles) subcutaneously between the hind foot pads, and edema was assessed after 1 hour and again after 2 hours in some experiments. Zymosan A (Sigma #A-8800) was freshly prepared for each experiment as a suspension of 10 mg/ml in PBS. Animals received 50 μl of zymosan (final dose of 500 μg) subcutaneously between the hind foot pads and edema was assessed after 2 hours.
Edema was quantitated by measuring the foot volume immediately prior to administration of PAF or zymosan and at indicated time point post-challenge with PAF or zymosan. Edema is expressed as the increase in foot volume in milliliters. Volume displacement measurements were made on anesthetized animals using a plethysmometer (UGO Basile, model #7150) which measures the displaced water volume of the immersed foot. […] Repeated measurements of the same foot using this technique indicate the precision to be within 5%.
PAF-AH was injected locally between the foot pads, or systematically by IV injection in the tail vein. For local administration rats received 100 μl PAF-AH (4000-6000 U/ml) delivered subcutaneously between the right hind foot pads. Left feet served as controls by administration of 100 μl carrier (buffered salt solution). For systemic administration of PAF-AH, rats received the indicated units of PAF-AH in 300 μL of carrier administered IV in the tail vein. Controls received the appropriate volume of carrier IV in the tail vein.
Rats (N=4) were injected with 100 μl of PAF-AH (4000-6000 U/ml) subcutaneously between the right foot pads. Left feet were injected with 100 μl carrier (buffered salt solution). Four other rats were injected only with carrier. All rats were immediately challenged with PAF via subcutaneous foot injection and foot volumes assessed 1 hour post-challenge. FIG. 4, wherein edema is expressed as average increase in foot volume (ml)±SEM for each treatment group, illustrates that PAF-induced foot edema is blocked by local administration of PAF-AH.
Rats (N=4 per group) were pretreated IV with either PAF-AH (2000 U in 300 μl carrier) or carrier alone, 15 minutes prior to PAF challenge. Edema was assessed 1 and 2 hours after PAF challenge. FIG. 5, wherein edema is expressed as average increase in volume (ml)±SEM for each treatment group, illustrates that IV administration of PAF-AH blocked PAF induced foot edema at one and two hours post challenge. […] Mean volume increase for the PAF-AH treated group at two hours was 0.10 ml±0.08 (SEM), versus 0.56 ml±0.11 for carrier treated controls.
Rats (N=4 per group) were pretreated IV with either PAF-AH (2000 U in 300 μl carrier) or carrier alone. Fifteen minutes after pretreatment, groups received either PAF or zymosan A, and foot volume was assessed after 1 and 2 hours, respectively.
In two separate experiments, groups of rats (N=3 to 4 per group) were pretreated IV with either serial dilutions of PAF-AH or carrier control in a 300 μl volume, 15 minutes prior to PAF challenge. Both feet were challenged with PAF (as described above) and edema was assessed after 1 hour. […]

PAF-induced pleurisy = PAF-induced pleurisy (Evans blue vascular leakage); type: in vivo, rat; conditions: 300 μl PAF-AH IV 15 minutes before 2.0 nmol PAF into pleural space, 1 hour

B1: PAF-AH: Recombinant human plasma platelet-activating factor acetylhydrolase (beginning at Ile42) expressed in E. coli from construct pUC trp AH (protein)
chain: IQVLMAAASFGQTKIPRGNGPYSVGCTDLMFDHTNKGTFLRLYYPSQDNDRLDTLWIPNKEYFWGLSKFLGTHWLMGNILRLLFGSMTTPANWNSPLRPGEKYPLVVFSHGLGAFRTLYSAIGIDLASHGFIVAAVEHRDRSASATYYFKDQSAAEIGDKSWLYLRTLKQEEETHIRNEQVRQRAKECSQALSLILDIDHGKPVKNALDLKFDMEQLKDSIDREKIAVIGHSFGGATVIQTLSEDQRFRCGIALDAWMFPLGDEVYSRIPQPLFFINSEYFQYPANIIKMKKCYSPDKERKMITIRGSVHQNFADFTFATGKIIGHMLKLKGDIDSNVAIDLSNKASLAFLQKHLGLHKDFDQWDCLIEGDDENLIPGTNINTTNQHIMLQNSSGIEKYN
[1]
  Hydrolysis of arachidonoylPC: not hydrolyzed
PAF-induced foot edema; 2000 U IV 15 minutes prior to PAF, after 1 hour, ±SEM
  Mean increase in volume: 0.08 ± 0.02 mL
PAF-induced foot edema; 2000 U IV 15 minutes prior to PAF, at two hours, ±SEM
  Mean volume increase: 0.10 mL
PAF-induced foot edema; IV injections
  IV dose range found to dramatically reduce PAF mediated inflammation: 160-2000 U/rat
PAF-induced foot edema; IV, summary of dosing studies
  ID50 dosage: 40-80 U/rat
PAF-induced foot edema; PAF-AH 2000 U IV vs CV3988 or Alprazolam 2 mg IP
  PAF-induced edema compared with PAF antagonists: reduction in PAF-induced edema beyond that afforded by the established PAF antagonists CV3988 and Alprazolam
PAF-induced foot edema; calculated from plasma volume for 180-200 gram rats
  Plasma concentration predicted to block PAF-elicited edema: 25-40 U/ml
PAF-induced foot edema; local s.c. 100 μl PAF-AH (4000-6000 U/ml), 1 hour post PAF challenge, ±SEM
  Increase in foot volume: 0.08 mL
PAF-induced foot edema; single 2000 U IV dose
  Duration of protection from PAF induced edema: at least 24 hours
PAF-induced pleurisy
  Reduction in inflammation (vascular leakage, Evans blue): > 80%

From patent US20050100540A1, “Platelet-activating factor acetylhydrolase” (priority 1993, published 2005)
